Drawing on patent publication US20250018053A1 (published 2025), this text covers Kd for one molecule.

The assay addresses -. In words: kinetic binding (Ka/Kdis fit).

B1: Ch-15A7.5 (antibody, V domains shown)
VH: EVKLVESGGGLVQPGGSRKLSCAASGFTFSNYGMAWVRQAPGKGPEWVAFISNLAYGINYADTVTGRFTISRENAKNTLYLEMRSLRSEDTAMYYCARGARATGWFAYWGQGTLVTVSA
VL: DIVMTQSQKFMSTSIGDRVSVTCKASQNVDTHVAWYQEKPGQSPKALIYSASYRYSGVPDRFTGSGSGTDFTLTISNVQSEDLADYFCQQYNSYPLTFGGGTKLEIK
B1 yielded a Kd of 45.9 nM.
